{"source": "the RNAGym collection of RNA variant scans (doi:10.1073/pnas.2313332121)", "parents": {"B1": {"name": "TPR t1 (parent)", "chain": "GACCAAUCUGCCCUCAGAGCUCGAGAACAUCUUCGGAUGCAGAGGAGGCAGGCUUCGGUGGCGCGAUAGCGCCAACGUCCUCAACCUCCAAUGCAUCCCACCACAUGAUGAUGCCUGAAGAGCCUUGGUUUUUUG"}}, "data": [{"variants_of": "B1", "test": "polymerase ribozyme fitness, log enrichment relative to wild type (log ratio); higher = more active; in vitro selection for triplet polymerase activity", "outline": "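Mutant libraries were PCR-built and transcribed for each subunit of a heterodimeric triplet polymerase ribozyme and selected for one round in triplicate at −7 °C, frozen, before gel excision of extended constructs and streptavidin-bead capture. Input and output libraries were Illumina-sequenced, keeping genotypes with ≥10 input reads and ≥1 read per output. Fitness is a logarithmic ratio of genotype to wild-type enrichment, in base 2, using inverse-variance-weighted replicate averages.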", "values": [{"variant": "C15A A41C C104U", "polymerase ribozyme fitness (log ratio)": -2.15}, {"variant": "C15A A43G C53U", "polymerase ribozyme fitness (log ratio)": -3.68}, {"variant": "C15A A43U C76G", "polymerase ribozyme fitness (log ratio)": -3.73}, {"variant": "C15A A66G U81C", "polymerase ribozyme fitness (log ratio)": -4.15}, {"variant": "C15A C20U", "polymerase ribozyme fitness (log ratio)": -3.39}, {"variant": "C15A C40A", "polymerase ribozyme fitness (log ratio)": -3.27}, {"variant": "C15A C40A C102U C114G", "polymerase ribozyme fitness (log ratio)": -6.22}, {"variant": "C15A C49U C72A U132A", "polymerase ribozyme fitness (log ratio)": -1.5}, {"variant": "C15A C53G C102U", "polymerase ribozyme fitness (log ratio)": -4.5}, {"variant": "C15A C53U G63C", "polymerase ribozyme fitness (log ratio)": -2.5}, {"variant": "C15A C56G", "polymerase ribozyme fitness (log ratio)": -3.39}, {"variant": "C15A C56U U59C C64U A84U C98G G110A", "polymerase ribozyme fitness (log ratio)": -7.69}, {"variant": "C15A C62A C76U U96G C115U", "polymerase ribozyme fitness (log ratio)": -6.47}, {"variant": "C15A C70U G93C C124G G128C", "polymerase ribozyme fitness (log ratio)": -4.17}, {"variant": "C15A C72A", "polymerase ribozyme fitness (log ratio)": -1.94}, {"variant": "C15A C72U", "polymerase ribozyme fitness (log ratio)": -2.75}, {"variant": "C15A C76U C79A C104A C123A", "polymerase ribozyme fitness (log ratio)": -4.6}, {"variant": "C15A C85G", "polymerase ribozyme fitness (log ratio)": -3.35}, {"variant": "C15A C85G C94A", "polymerase ribozyme fitness (log ratio)": -3.92}, {"variant": "C15A C94U", "polymerase ribozyme fitness (log ratio)": -1.87}, {"variant": "C15A G19U G63C G113A G135C", "polymerase ribozyme fitness (log ratio)": -3.99}, {"variant": "C15A G23U C72G C98A C114G U116A", "polymerase ribozyme fitness (log ratio)": -7.66}, {"variant": "C15A G39C G117A", "polymerase ribozyme fitness (log ratio)": -1.64}, {"variant": "C15A G39U C40U C64U G93C", "polymerase ribozyme fitness (log ratio)": -4.09}, {"variant": "C15A G42A G71U G117C", "polymerase ribozyme fitness (log ratio)": -5.93}, {"variant": "C15A G45U A84U C123U", "polymerase ribozyme fitness (log ratio)": -2.4}, {"variant": "C15A G47U", "polymerase ribozyme fitness (log ratio)": -4.02}, {"variant": "C15A G47U C64U C123U", "polymerase ribozyme fitness (log ratio)": -2.43}, {"variant": "C15A G47U G127C", "polymerase ribozyme fitness (log ratio)": -5.43}, {"variant": "C15A G48C C70U", "polymerase ribozyme fitness (log ratio)": -3}, {"variant": "C15A G48C C123G", "polymerase ribozyme fitness (log ratio)": -1.77}, {"variant": "C15A G51A A74U C79G A111C A118U", "polymerase ribozyme fitness (log ratio)": -6.36}, {"variant": "C15A G52U", "polymerase ribozyme fitness (log ratio)": -3.6}, {"variant": "C15A G52U A66U C94G", "polymerase ribozyme fitness (log ratio)": -5.17}, {"variant": "C15A G57A U78A G110U C124G", "polymerase ribozyme fitness (log ratio)": -3.91}, {"variant": "C15A G60U", "polymerase ribozyme fitness (log ratio)": -2.01}, {"variant": "C15A G61A A83U G117C", "polymerase ribozyme fitness (log ratio)": -5.31}, {"variant": "C15A G61U", "polymerase ribozyme fitness (log ratio)": -0.806}, {"variant": "C15A G71U C104A", "polymerase ribozyme fitness (log ratio)": -4.07}, {"variant": "C15A G77A U96A", "polymerase ribozyme fitness (log ratio)": -3.85}, {"variant": "C15A G120C", "polymerase ribozyme fitness (log ratio)": -0.2}, {"variant": "C15A G120C U129A", "polymerase ribozyme fitness (log ratio)": -1.24}, {"variant": "C15A G120U", "polymerase ribozyme fitness (log ratio)": -1.44}, {"variant": "C15A U21A U78A G93U", "polymerase ribozyme fitness (log ratio)": -2.36}, {"variant": "C15A U33A G117A", "polymerase ribozyme fitness (log ratio)": -5.68}, {"variant": "C15A U33C A83U C101G G117C", "polymerase ribozyme fitness (log ratio)": -7.47}, {"variant": "C15A U33C C70U A111U", "polymerase ribozyme fitness (log ratio)": -5.94}, {"variant": "C15A U54A C56G C72A", "polymerase ribozyme fitness (log ratio)": -2.89}, {"variant": "C15A U54G A90U", "polymerase ribozyme fitness (log ratio)": -3.13}, {"variant": "C15A U78C", "polymerase ribozyme fitness (log ratio)": -2.38}, {"variant": "C15A U92A", "polymerase ribozyme fitness (log ratio)": -4.5}, {"variant": "C15A U109A", "polymerase ribozyme fitness (log ratio)": -5.42}, {"variant": "C15G A29G C64U C76G C99U U112A", "polymerase ribozyme fitness (log ratio)": -6.38}, {"variant": "C15G A29G G39U G69U", "polymerase ribozyme fitness (log ratio)": -4.2}, {"variant": "C15G A37C C49U C53U", "polymerase ribozyme fitness (log ratio)": -4.47}, {"variant": "C15G A37C C73G G120C G128U", "polymerase ribozyme fitness (log ratio)": -4.14}, {"variant": "C15G A37G C62U C76U A118U C124U", "polymerase ribozyme fitness (log ratio)": -2.37}, {"variant": "C15G A37U C56U C123A", "polymerase ribozyme fitness (log ratio)": -1.93}, {"variant": "C15G A41G C104U", "polymerase ribozyme fitness (log ratio)": -2.92}, {"variant": "C15G A43U C49U A74G", "polymerase ribozyme fitness (log ratio)": -4.91}, {"variant": "C15G A43U C56U", "polymerase ribozyme fitness (log ratio)": -3.19}, {"variant": "C15G A43U C64A A84G C85G A90C U112G U132C", "polymerase ribozyme fitness (log ratio)": -6.82}, {"variant": "C15G A46G G71A C88G", "polymerase ribozyme fitness (log ratio)": -5.35}, {"variant": "C15G A50U", "polymerase ribozyme fitness (log ratio)": -3.73}, {"variant": "C15G A66G G69C C89U", "polymerase ribozyme fitness (log ratio)": -5.99}, {"variant": "C15G A90C", "polymerase ribozyme fitness (log ratio)": -3.94}, {"variant": "C15G A95U C98U", "polymerase ribozyme fitness (log ratio)": -5.14}, {"variant": "C15G C22U A37G U38G G63C G110C", "polymerase ribozyme fitness (log ratio)": -5.93}, {"variant": "C15G C40A U92C", "polymerase ribozyme fitness (log ratio)": -4.63}, {"variant": "C15G C40U C56A C73U C80A C124G", "polymerase ribozyme fitness (log ratio)": -5.12}, {"variant": "C15G C49G G61A C85A G110A", "polymerase ribozyme fitness (log ratio)": -3.95}, {"variant": "C15G C49U U78A U125G", "polymerase ribozyme fitness (log ratio)": -3.37}, {"variant": "C15G C56G U87G U112G G113A C123G G135A", "polymerase ribozyme fitness (log ratio)": -3.08}, {"variant": "C15G C56U A83U C115G C123A", "polymerase ribozyme fitness (log ratio)": -4.36}, {"variant": "C15G C62A", "polymerase ribozyme fitness (log ratio)": -3.96}, {"variant": "C15G C62U C79A A95G G117U", "polymerase ribozyme fitness (log ratio)": -1.98}, {"variant": "C15G C70G A90G C114G", "polymerase ribozyme fitness (log ratio)": -6.41}, {"variant": "C15G C70G C86A G120A", "polymerase ribozyme fitness (log ratio)": -4.5}, {"variant": "C15G C73A", "polymerase ribozyme fitness (log ratio)": -2.02}, {"variant": "C15G C73U G107U G117C", "polymerase ribozyme fitness (log ratio)": -3.77}, {"variant": "C15G C79U", "polymerase ribozyme fitness (log ratio)": -1.96}, {"variant": "C15G C88G", "polymerase ribozyme fitness (log ratio)": -3.07}, {"variant": "C15G C88G G120C", "polymerase ribozyme fitness (log ratio)": -1.47}, {"variant": "C15G C97U C124U", "polymerase ribozyme fitness (log ratio)": -1.59}]}]}
